Measurements from patent US20190367586A1 (VANDERBILT UNIVERSITY, published 2019).
Changes are numbered by the printed parent chain.

B1: hRSV61 (antibody, V domains shown)
VH: QVQLVQSGAELKKPGASVKVSCKASGYTFTNHGITWVRQAPGQGLEWMSWISGYNGNTQYAQKFQGRVTMTTDTSTRTAYMELRSLTSDDTAVYYCARDNGVVVGPPDYWGQGTLVTVSS
VL: DIQMTQSPSTLSASVGDRVTISCRASQSISSWLAWYQQKPGKPPKLLIYKASGLQTGVPSRFSGSGSGTEFTLTISSLQPDDFATYYCQYYHSLSAFGQGTKVEIK
B2: hRSV90 (antibody, V domains shown)
VH: EVQLVESGGGLVQPRRSLRLSCAASGFTFDDYTIHWVRQAPGKGLEWVSGITWNSGYIGYADSVKGRFTISRDNARNSLYLQMNSLRAEDTALYYCVRDAYVSGSDYYYYGLDVWGRGTLVTVSS
VL: EIVMTSSPATLSVSPGERATLFCRASQSVISNLAWYQQKSGQAPRLLIYGASTRATGIPARFSGSGSGTEFTLTISSLQSEDFAVYFCQQYNNWPLTFGGGTQVNVQ
notes: also called mAb hRSV90
B3: D25 (antibody, V domains shown)
VH: QVQLVQSGAEVKKPGSSVMVSCQASGGPLRNYIINWLRQAPGQGPEWMGGIIPVLGTVHYAPKFQGRVTITADESTDTAYIHLISLRSEDTAMYYCATETALVVSTTYLPHYFDNWGQGTLVTVSS
VL: DIQMTQSPSSLSAAVGDRVTITCQASQDIVNYLNWYQQKPGKAPKLLIYVASNLETGVPSRFSGSGSGTDFSLTISSLQPEDVATYYCQQYDNLPLTFGGGTKVEIKR
B4: hRSV97 (antibody, V domains shown)
VH: EVQLVESGGTLVQPGRSLRLSCAASGFNFEEYAMHWVRQVPGKGLEWVARINWNGGIIGYADSVKGRFTISRDNAKKSLYLQMNSLRTDDSALYYCGKDVFWAVAGTGGPIDSWGQGTLVTVSS
VL: DIVMTQSPSSLSASIGDRVTISCRASRDISNYLAWYQQKSGKVPKLLIYAASTLESGVPSRFSGSGSGTDFTLTISSLQPEDVATYYCQNYNSAQMCSFGQGPSLEIK
B5: hRSV139 (antibody, V domains shown)
VH: QVQLVQSGAEVKKPGASVKVSCKASGYVFSNYGISWVRQAPGQGLEWMGWISAYNGNTEFAQKFQGRITMTTDTSTNTAYLEVRGLRSDDTAVYYCSRQSGVSGVPEFQDWGQGTLVTVSS
VL: QAVVTQSPLSLPVTLGQPASISCRSSQSLVYSNGDTYLSWFQQRPGQSPRRLIYKVSNRDSGVPDRFSASGSGTDFTLKISRVEAEDVGVYYCMQGTHWPPPTFGQGTRLEIK
B6: hRSV12 (antibody, V domains shown)
VH: QVQLVQSGAEVKKPGTSVRVSCKTSGYNFMNYGIYWVRQAPGQGLEWVGWISAYNGQTDRAQKFQGRVTMTTDISTNTGYMDLRSLRSDDTAVYFCARGPPVIAAVSLEYWGRGTLVTVSS
VL: EVVMTQSPLSLPVTLGQPASISCKSSQSLVHSNGDTYLNWFQQRPGQSPRRLIYKVSNRDSGVPDRFSGSGSGTDFTLKISRVETEDVGVYYCMQATHWPGSFGQGTKLEIK
B7: motavizumab (antibody, V domains shown)
VH: QVTLRESGPALVKPTQTLTLTCTFSGFSLSTAGMSVGWIRQPPGKALEWLADIWWDDKKHYNPSLKDRLTISKDTSKNQVVLKVTNMDPADTATYYCARDMIFNFYFDVWGQGTTVTVSS
VL: DIQMTQSPSTLSASVGDRVTITCSASSRVGYMHWYQQKPGKAPKLLIYDTSKLASGVPSRFSGSGSGTEFTLTISSLQPDDFATYYCFQGSGYPFTFGGGTKVEIK
B8: palivizumab (antibody, V domains shown)
VH: B7 VH with A32S, H60D, D67S, D100S, F103T, F105W, Q112A
VL: B7 VL with S24K, A25C, S26Q, S27L, R28S, V103L
B9: hRSV75 (antibody, V domains shown)
VH: EVQLVESGGGLVKPGGSLRLSCAASGFTFRSYSMNWVRQAPGKGLEWVSSITSSSSYIDYADSVKGRFTISRDNAKNSLYLQMNSLRAEDTAVYYCARAYCGGDCSVDHFQHWGQGTLVTVSS
VL: QSVLTQPPSVSGAPGQRVTISCTGSSSNIGAGYDVHWYQHLPGTAPKLLIYVNSNRPSGVPDRFSASKSGTSASLAITGLQAEDEADYYCQSYDKSLSGFYVFGTGTKVTVL
B10: hRSV20 (antibody, V domains shown)
VH: QVQLVESGGGLVQPGRSLRLSCAASGFTFDDYAMHWVRQAPGRGLEWVSGISWNSGIAVYADSVKGRFTISRDNAKKSLYLQINSLRAEDTALYYCVKDNYASGSYSSYYYYYGLDLWGQGTLVTVSS
VL: EIVMTQSPATLSVSPGERATLSCRASQSIISNLAWYQQKPGQAPRLLIYGVSTRATGIPARFSGSGSDTEFTLSISSLQSEDFAVYYCQQYNNWPITFGQGTRLEIK
B11: hRSV7 (antibody, V domains shown)
VH: EVQLVESGGGLVQPGGSLRLSCAASGFTFRNYAMSWVRQAPGKGLEWVSDISSGGDTTYYAESLKGRITISRDNSKNTLYLQMNSLRAEDAAIYFCAKHLLSPMYVNTDVFPDWYFEIWGRGTLVTVSS
VL: SYELTQPPSVSVSPGQTARITCSGDGLPKKYAYWYQQKSGQAPVLVIYDDSKRPSGIPERFSGTSSGTMATLIISGAQVEDEADYYCYSRHNSAYQRVFGAGTQLTVL
B12: hRSV141 (antibody, V domains shown)
VH: QVQLVQSGAEVKKPGASVKVSCKASGYTFTNYYMHWVRQAPGQGLEWMGWINPNRGGTNYAQKFQGRVTMTLDTSISTAYIELSRLRSDDTAVYYCARDLTLGTDYWGQGTLVTVSS
VL: QAVVTQPASVFGFPGQSITISCTGTSSDVGGYNYVSWYQQRPGKAPKLMIYEVSNRPSGVSNRFSGSKSGNTASLTISGLQAEDEADYYCNSYTSSNSYVFGTGTKVTVL
B13: AM14 (antibody, V domains shown)
VH: EVQLVESGGGVVQPGRSLRLSCAASGFSFSHYAMHWVRQAPGKGLEWVAVISYDGENTYYADSVKGRFSISRDNSKNTVSLQMNSLRPEDTALYYCARDRIVDDYYYYGMDVWGQGATVTVSS
VL: DIQMTQSPSSLSASVGDRVTITCQASQDIKKYLNWYHQKPGKVPELLMHDASNLETGVPSRFSGRGSGTDFTLTISSLQPEDIGTYYCQQYDNLPPLTFGGGTKVEIKR
B14: hRSV106 (antibody, V domains shown)
VH: QITLKESGPTLVKPTQTLTLTCTFSGFSLTTRGVGVAWIRQPPGKALEWLALIYWDDDKRYRSSPKGRLTITKDNSKNQVVLIMTNMDPVDTATYYCAHAMDDSGSYYVGLSKDPHFDSWGHGTLVTVSS
VL: SYELTQPPSVSVSPGQTASITCSGDVLFNKFASWYQQKPGQSPVLVIYQDSKRPSGIPERFSGSNSGNTATLTIRGTQAMDEADYYCQARGSTAAHVIFGGGTKVTVL

Experiments:
[1] = target: F protein of RSV strain Long (infectious virus) (human respiratory syncytial virus …, UniProt P12568 26-574); experiment: cell-based or functional assay
[2] = target: F protein of RSV strain 18537 B (infectious virus) (human respiratory syncytial virus …, UniProt P13843 26-574); experiment: cell-based or functional assay
[3] = target: F protein of RSV strain A2 (infectious virus) (human respiratory syncytial virus …, UniProt P03420 26-574); experiment: cell-based or functional assay
[4] = target: T1, RSV strain A2 pre-fusion F protein (SC-TM) (human respiratory syncytial virus …, UniProt P03420 26-513); experiment: ELISA, F protein coated
T1 construct: not shown: fold-on trimerization domain and polyhistidine tag

[5] = target: T2, RSV strain A2 post-fusion F (human respiratory syncytial virus …, UniProt P03420 26-109; P03420 137-524); experiment: ELISA, F protein coated
T2 construct: extracellular domain

[6] = target: F protein of RSV strain A2 (infectious virus) (human respiratory syncytial virus …, UniProt P03420 26-574); experiment: cell-based or functional assay; remark: listed apart in the source
[7] = target: T3, RSV strain 18537 post-fusion F (human respiratory syncytial virus …, UniProt P13843 26-109; P13843 137-524); experiment: ELISA, F protein coated
T3 construct: extracellular domain; also called RSV B 18537 (post)

[8] = target: RSV strain A2 pre-fusion F protein (SC-TM) (human respiratory syncytial virus …, UniProt P03420 26-513); experiment: ELISA, F protein coated

| Binder | Neutralization IC50, plaque-reduction assay [1] | Neutralization IC50, plaque-reduction assay [2] | Neutralization IC50, plaque-reduction assay [3] | EC50 [4] | EC50 [5] | Neutralization IC50, plaque-reduction assay [6] | EC50 [7] | EC50 [8] |
| --- | --- | --- | --- | --- | --- | --- | --- | --- |
| B1 | 0.054 µg/mL | 0.09 µg/mL | 0.276 µg/mL | 0.027 µg/mL | – | – | – | – |
| B2 | 0.035 µg/mL | 0.045 µg/mL | 0.015 µg/mL | 0.028 µg/mL | – | – | – | – |
| B3 | 0.009 µg/mL | > 1 µg/mL | – | – | – | – | – | – |
| B4 | 0.106 µg/mL | 0.065 µg/mL | 2.23 µg/mL | 0.053 µg/mL | – | – | – | – |
| B5 | 0.07 µg/mL | 0.216 µg/mL | 0.621 µg/mL | 0.04 µg/mL | – | – | – | – |
| B6 | 0.016 µg/mL | 0.443 µg/mL | 0.141 µg/mL | 0.028 µg/mL | 0.285 µg/mL | – | – | – |
| B7 | 0.009 µg/mL | 0.091 µg/mL | – | – | 0.083 µg/mL | 0.123 µg/mL | 0.084 µg/mL | 0.017 µg/mL |
| B8 | 0.212 µg/mL | 1.27 µg/mL | – | – | 0.024 µg/mL | 11 µg/mL | 0.081 µg/mL | – |
| B9 | 0.019 µg/mL | 0.062 µg/mL | 0.129 µg/mL | 0.044 µg/mL | – | – | – | – |
| B10 | 0.014 µg/mL | 0.114 µg/mL | 0.034 µg/mL | – | – | – | – | – |
| B11 | 0.062 µg/mL | 0.022 µg/mL | 1.33 µg/mL | – | – | – | – | – |
| B12 | 0.028 µg/mL | 0.053 µg/mL | 0.626 µg/mL | 0.029 µg/mL | – | – | – | – |
| B13 | 0.043 µg/mL | – | – | – | – | – | 0.198 µg/mL | – |
| B14 | 0.043 µg/mL | 0.114 µg/mL | 0.451 µg/mL | 0.046 µg/mL | – | – | – | – |
